The molecules below were run on CD8+ and CD4+ T cells (autologous CD3+ Pan-T cells isolated from human normal PBMCs) (assay: Exogenous autologous normal donor restimulation assay (15-mer overlapping peptide pools on CD1c+ dendritic cells, TNFα/IFNγ flow cytometry)). Settings: Table 28; additional neoantigens; 15-mer overlapping peptide pool; highest across normal donors.
Format: cell-based
Outline: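 Readout was intracellular TNFα/IFNγ flow cytometry on live CD3+ CD8+ and CD4+ cells after day-11 peptide restimulation. Stimulators were CD1c+ dendritic cells loaded with overlapping 15-mer peptide pools (2.5–10 μg/mL), irradiated, and cultured 12 days with autologous normal-donor Pan-T cells plus IL-15/IL-2. A response counted when ≥3-fold over DMSO control and at least 0.01%.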

Molecule | Max. Fold Change over background CD4+ TNFαINFγ double positive DP | Max. Fold Change over background CD8+ TNFαINFγ double positive DP | Max. Frequency of CD4+ TNFαINFγ DP | Max. Frequency of CD8+ TNFαINFγ DP
LLNAEDYRCAIHSKEIYLLSPSPHQAMDKFSLCCINCNLCLHVFLLLLFFQNKDVWLISNIILLWIYGGI (peptide, listed as Homo sapiens, TM9SF3 alternative splicing) LLNAEDYRCAIHSKEIYLLSPSPHQAMDKFSLCCINCNLCLHVFLLLLFFQNKDVWLISNIILLWIYGGI | 128.76 | 6.35 | 0.18 | 0.6
FGLTTLAGRSSHGTSGLRAATHTKSGDGGQGAARQCEKLLELARATRPWGRSTSASSRWTHRGYMCPPRCAVACW (peptide, listed as Homo sapiens, PEX10 alternative splicing) FGLTTLAGRSSHGTSGLRAATHTKSGDGGQGAARQCEKLLELARATRPWGRSTSASSRWTHRGYMCPPRCAVACW | 113.91 | 4.02 | 0.43 | 0.35
KGSVERRSVSLGHPAEGWAWAERSLQPGMTTANTGCLSFHHRGCLLPVLPKLHCGLGGLPLVRAKEIKRVQRAGESSLPVKGLLTVASAVIAVLWGRPSEVTGENEAQHD (peptide, listed as Homo sapiens, ILDR1 alternative splicing) KGSVERRSVSLGHPAEGWAWAERSLQPGMTTANTGCLSFHHRGCLLPVLPKLHCGLGGLPLVRAKEIKRVQRAGESSLPVKGLLTVASAVIAVLWGRPSEVTGENEAQHD | 184.87 | 6.85 | 0.63 | 0.1
PSGRRTKRLVTLRSGCAIQCWHPRAGPVPSALPHTERPPRLVRGAADPRTVTLGRSPAVMPRAPA (peptide, listed as Homo sapiens, CCNF alternative splicing) PSGRRTKRLVTLRSGCAIQCWHPRAGPVPSALPHTERPPRLVRGAADPRTVTLGRSPAVMPRAPA | 129.8 | 1544.74 | 0.49 | 58.7
FVSLTAIQMASSATPWGRWPVATPTAACPRRRPSSLPTGGDSASKKPISRRAPWQPWACPGRSVNSAAPRAWCPPATTPRTQSPSRDLRPRCLSSWSS (peptide, listed as Homo sapiens, FASN alternative splicing) FVSLTAIQMASSATPWGRWPVATPTAACPRRRPSSLPTGGDSASKKPISRRAPWQPWACPGRSVNSAAPRAWCPPATTPRTQSPSRDLRPRCLSSWSS | 293.94 | 4.72 | 1.48 | 0.09
PVAIKPGTGPPNNSSIHGGSKRSENSYCRDLRGQLRAICCSSYSHDRHTTEERGSRGRHVWRIRRLHTSGLPCCCHSGPHPRRLPDILRLVTSTKTDHTNTTEGTLDYL (peptide, listed as Homo sapiens, RBM47 alternative splicing) PVAIKPGTGPPNNSSIHGGSKRSENSYCRDLRGQLRAICCSSYSHDRHTTEERGSRGRHVWRIRRLHTSGLPCCCHSGPHPRRLPDILRLVTSTKTDHTNTTEGTLDYL | 78.51 | 4.96 | 0.61 | 0.07
